# ± gives the uncertainty stated by the source.
# Experiment: amyloid nucleation score (Sup35N fusion, yeast selection) (log enrichment); library NNK2; higher = more nucleation; inactive = no reads after selection
# Method in brief: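 Peptides of 20 random codons fused to Sup35N were expressed in psi-negative yeast, induced 24 hours with 100 μM copper sulfate, then grown 7 days at 30°C on medium lacking adenine and uracil. Input and output plasmid inserts were Illumina-sequenced. Nucleation score is the DiMSum log enrichment of output over input reads, centred on the mode score of non-aggregating sequences, excluding sequences with under 100 input reads. Random libraries had three technical output replicates.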
row,Substance,amyloid nucleation score
1,MVRIGELSPRCNSFV,0.075 ± 0.53
2,SCRLFVLYALLFGLSVGCVL,inactive
3,LDDSYPCFASIITI,1.01 ± 0.41
4,YSSAGDVMLNRQLDGCWLTR,-0.006 ± 0.53
5,KWCPLFKGSIGFSFLVHTMK,-1.26 ± 1.1
6,LVRSVFIRYCISIPCRTRVL,0.034 ± 1.1
7,FDCGGCKNMGF,-1.74 ± 0.62
8,SNHLIVMISVFYFKSVRI,inactive
9,DFYLFQG,0.228 ± 0.56
10,DCLIRIVQSTGVYVRWQGRA,4.35 ± 0.086
11,GVSLFYNWPPSAFKVRYE,-0.611 ± 1
12,NNRWVRKVSDYRVSC,0.243 ± 0.64
13,SCMFYYCCTDTYKVPYSDAM,7.759 ± 0.067
14,TFNKLYYSSVACLCRLGHSR,9.32 ± 0.055
15,IQLDRSYSHNTSSLQGWHTM,0.062 ± 0.74
16,LAGLYYVGVVENGMDMQDRK,-0.329 ± 0.29
17,RSGLYM,-0.55 ± 0.64
18,WTYRCPALLFYQFYAKGYA,-0.594 ± 0.63
19,HSALWRLWEPAQP,0.552 ± 0.64
20,ASMVSVSVDEFGGFLPSCVS,-0.55 ± 0.46
21,MYCLVYHQIYSDSHA,3.91 ± 0.05
22,GELGQCVIKSVMSMLHKRAN,-0.347 ± 0.79
23,FLSEFVRIGPYARS,inactive
24,MWRTLGYHTNMVSA,inactive

row,Substance,amyloid nucleation score
1,VGYIQGFERTYL,-0.42 ± 0.76
2,NRAVGLLRYTMVMGT,0.026 ± 1.1
3,RCSCPANGFLMGQLAVMS,2.83 ± 0.12
4,DYAIVSGVLLTQMQQLMCFV,0.466 ± 0.33
5,SSCIFYFTIRTNQTYLGI,6.93 ± 0.06
6,GCQGVEGSESEQIDQIENWA,0.978 ± 0.74
7,RISECAIYARTGSYMSMRRR,4.08 ± 0.051
8,KNDISHS,inactive
9,TASIDKRVTGSSREWWRSRQ,0.357 ± 0.66
10,EVPCWMTRSSMECNVDYWEG,0.797 ± 0.2
11,NYVCWISGTTGLVM,-0.319 ± 0.76
12,FMRGLMARLCER,0.293 ± 0.4
13,FTNNSPARSCDRVHGDGVRH,0.376 ± 0.35
14,FHGRSATGISRLYLKRGCSG,0.761 ± 0.47
15,NSVFAGRRTRTSFP,0.227 ± 0.62
16,LCIYFICSGLVRRLEWVG,-0.871 ± 0.3
17,PHDGRNWFSVSDLMIGSDVG,0.505 ± 0.36
18,TLVHSKF,3.01 ± 0.089
19,LLPIGEVKE,-1.17 ± 0.44
20,NSSYTVGHGPDT,inactive
21,SVFLSNLFSYRSADNYGMAR,inactive
22,DIMVERGAFIGLKAD,5.41 ± 0.068
23,CIRAECVKLYL,6.11 ± 0.087
24,YVATVWPLQSKRLSHRLMNG,0.695 ± 0.43

row,Substance,amyloid nucleation score
1,VSVDSVDAIFRK,0.489 ± 0.64
2,RRLGYPYFTR,-0.743 ± 0.44
3,KWVVKMDVGCVPSQTRRGSW,1.05 ± 0.4
4,WARFEKV,inactive
5,VDIASLKLTSNH,-0.213 ± 0.65
6,IKYSVVNRHRVGLSVTAKW,-0.205 ± 0.37
7,VSPLNGSVYGGDEVFGINLG,-1.95 ± 0.75
8,SAFYKQCEWFFNLMANSLCG,-0.021 ± 0.63
9,TNCSIMGTFSYFNDCSLGGT,5.247 ± 0.051
10,SMYDAGIFVGYCLRGFLYDC,inactive
11,GFVYQVIITIRHVCSLKRNR,0.76 ± 0.16
12,GIVYVALSHYLAVNTKVFMP,0.477 ± 0.66
13,SINSSV,-0.166 ± 1.1
14,GSLNTLSIFDDE,-0.684 ± 0.64
15,THPEFSIPIGRHHYGG,-0.836 ± 0.29
16,HVVGVNLYRTLGRVFHLWDS,-0.084 ± 0.76
17,GSYCCLVKFMKFFSSLGHQF,-1.29 ± 1
18,LSLVYRIGLNCNRELSSFDW,2.33 ± 0.1
19,KLSNLSHDSYMLENALFALT,2.52 ± 0.063
20,MRVRLGSATR,0.47 ± 0.34
21,MALHVQWRVTGSI,5.14 ± 0.037
22,EVTILVGKGERLKRTYCSR,0.329 ± 0.2
